Here are results for two molecules from paper PMC9481167, “Biosynthetic proteins targeting the SARS-CoV-2 spike as anti-virals” (PLoS Pathogens, 2022).

The target of the experiment is receptor binding domain (RBD) of the SARS-CoV-2 spike (SARS-CoV-2, UniProt P0DTC2, biotin (biotinylated; site not stated)). Nature of the experiment: BLI. The conditions noted are these: both partners purified.

B1: VHH-72 (VHH)
VHH: QVQLQESGGGLVQAGGSLRLSCAASGRTFSEYAMGWFRQAPGKEREFVATISWSGGSTYYTDSVKGRFTISRDNAKNTVYLQMNSLKPDDTAVYYCAAAGLGTVVSEWDYDYDYWGQGTQVTVSS
As to B1, the binding result is on record as “binds”.

B2: VHH H11D4 (VHH)
VHH: QVQLVESGGGLMQAGGSLRLSCAVSGRTFSTAAMGWFRQAPGKEREFVAAIRWSGGSAYYADSVKGRFTISRDKAKNTVYLQMNSLKYEDTAVYYCARTENVRSLLSDYATWPYDYWGQGTQVTVSS
notes: also called VHH11D4
In the case of B2, the binding result is “binds”.
